This passage reports EC50 results from patent publication US20100239571A1 (Seagen, published 2010).

The target in experiment [1] is T1, CD30 surface antigen expressed on Karpas-299 (human, UniProt P28908 19-595).
T1 construct: whole, on cells; also called human CD30
T1 sequence (looked up): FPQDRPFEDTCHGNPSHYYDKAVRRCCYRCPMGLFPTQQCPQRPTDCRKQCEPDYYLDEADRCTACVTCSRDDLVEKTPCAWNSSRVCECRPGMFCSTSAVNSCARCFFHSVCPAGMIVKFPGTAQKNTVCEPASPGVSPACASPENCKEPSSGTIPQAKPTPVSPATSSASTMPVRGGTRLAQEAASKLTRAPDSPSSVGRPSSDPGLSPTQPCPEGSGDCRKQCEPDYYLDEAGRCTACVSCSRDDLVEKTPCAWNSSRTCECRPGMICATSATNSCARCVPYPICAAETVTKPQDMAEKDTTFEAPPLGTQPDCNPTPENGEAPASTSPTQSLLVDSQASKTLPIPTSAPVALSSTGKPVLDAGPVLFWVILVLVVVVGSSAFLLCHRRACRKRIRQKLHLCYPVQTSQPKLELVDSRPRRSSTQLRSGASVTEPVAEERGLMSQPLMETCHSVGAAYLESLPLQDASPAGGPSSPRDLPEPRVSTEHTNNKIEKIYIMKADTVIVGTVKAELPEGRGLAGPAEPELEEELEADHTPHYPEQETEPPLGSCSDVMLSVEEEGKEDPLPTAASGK
The experiment can be described thus: competition binding on Karpas 299 cells against europium-labeled cAC10. Here is the method: (§1) The variants were tested for binding to CD30 surface antigen expressed on Karpas-299, an anaplastic large cell lymphoma cell line, using a competition binding assay in which cAC10, expressed in CHO cells, was europium labeled (see, e.g., Law et al., Cancer Research 65:8331-38 (2005)). The results, shown below in the second column of Table 6, indicate that all of the variants were able to compete with cAC10 for binding to CD30. Thus, the variants retained antigen binding activity.

The target of experiment [2] is T1, CD30 surface antigen expressed on …. Kind of experiment: competition binding on Karpas 299 cells against europium-labeled cAC10 (control competitor). Here is the method: as §1

B1: hAC10 HALA (antibody, human IgG1, kappa, V domains shown)
VH: QVQLVQSGAEVKKPGASVKVSCKASGYTFTDYYITWVRQAPGQGLEWMGWIYPGSGNTKYNEKFKGRVTMTVDTSISTAYMELSRLRSDDTAVYFCANYGNYWFAYWGQGTLVTVSS
VL: DIVMTQSPDSLAVSLGERATINCKASQSVDFDGDSYMNWYQQKPGQPPKLLIYAASNLESGVPDRFSGSGSGTDFTLTISSLQAEDVAVYYCQQSNEDPWTFGQGTKVEIKR
notes: The name HALA is read as heavy variant A plus light variant A; also called humanized AC10 variant HALA; hVH A + hVL A
By EC50 is commonly meant the concentration at which the effect is half-maximal. Read a high EC50 as a less potent agent. On to B1, for which, in experiment [1], it took 6.61 nM to reach a half-maximal effect (EC50).

B2: hAC10 HALB (antibody, human IgG1, kappa, V domains shown)
VH: QVQLVQSGAEVKKPGASVKVSCKASGYTFTDYYITWVRQAPGQGLEWMGWIYPGSGNTKYNEKFKGRVTMTVDTSISTAYMELSRLRSDDTAVYFCANYGNYWFAYWGQGTLVTVSS
VL: DIVMTQSPDSLAVSLGERATINCKSSQSVDFDGDSYMNWYQQKPGQPPKLLIYAASNLESGVPDRFSGSGSGTDFTLTISSLQAEDVAVYYCQQSNEDPWTFGQGTKVEIKR
notes: Human IgG1 / kappa; also called humanized AC10 variant HALB; hVH A + hVL B
As for B2, a half-maximal response in experiment [1] (EC50) required 5.9 nM.

B3: hAC10 HALD (antibody, human IgG1, kappa, V domains shown)
VH: QVQLVQSGAEVKKPGASVKVSCKASGYTFTDYYITWVRQAPGQGLEWMGWIYPGSGNTKYNEKFKGRVTMTVDTSISTAYMELSRLRSDDTAVYFCANYGNYWFAYWGQGTLVTVSS
VL: DIVMTQSPDSLAVSLGERATINCKSSQSVDFDGDSYLNWYQQKPGQPPKLLIYAASNLESGVPDRFSGSGSGTDFTLTISSLQAEDVAVYYCQQSNEDPWTFGQGTKVEIKR
notes: Human IgG1 / kappa; also called humanized AC10 variant HALD; hVH A + hVL D
As for B3, in experiment [1], the concentration for a half-maximal effect (EC50) was determined as 6 nM.

B4: hAC10 HCLA (antibody, human IgG1, kappa, V domains shown)
VH: QVQLVQSGAEVKKPGASVKVSCKASGYTFTDYYITWVRQAPGQGLEWMGWIYPGSGNTKYNEKFKGRVTMTVDTSISTAYMELSRLRSDDTAVYYCANYGNYWFAYWGQGTLVTVSS
VL: DIVMTQSPDSLAVSLGERATINCKASQSVDFDGDSYMNWYQQKPGQPPKLLIYAASNLESGVPDRFSGSGSGTDFTLTISSLQAEDVAVYYCQQSNEDPWTFGQGTKVEIKR
notes: Human IgG1 / kappa; also called humanized AC10 variant HCLA; hVH C + hVL A
The molecule B4 had an EC50 in experiment [1] of 3.61 nM.

B5: hAC10 HDLD (antibody, human IgG1, kappa, V domains shown)
VH: QVQLVQSGAEVKKPGASVKVSCKASGYTFTDYYITWVRQAPGQGLEWMGWIYPGSGNTKYNEKFKGRVTMTRDTSISTAYMELSRLRSDDTAVYYCANYGNYWFAYWGQGTLVTVSS
VL: DIVMTQSPDSLAVSLGERATINCKSSQSVDFDGDSYLNWYQQKPGQPPKLLIYAASNLESGVPDRFSGSGSGTDFTLTISSLQAEDVAVYYCQQSNEDPWTFGQGTKVEIKR
notes: Human IgG1 / kappa; also called humanized AC10 variant HDLD; hVH D + hVL D
The molecule B5 had a 50% effective concentration (EC50) in experiment [1] of 2.25 nM.

B6: hAC10 HBLA (antibody, human IgG1, kappa, V domains shown)
VH: QVQLVQSGAEVKKPGASVKVSCKASGYTFTDYYITWVRQAPGQGLEWMGWIYPGSGNTKYNEKFKGRVTMTRDTSISTAYMELSRLRSDDTAVYFCANYGNYWFAYWGQGTLVTVSS
VL: DIVMTQSPDSLAVSLGERATINCKASQSVDFDGDSYMNWYQQKPGQPPKLLIYAASNLESGVPDRFSGSGSGTDFTLTISSLQAEDVAVYYCQQSNEDPWTFGQGTKVEIKR
notes: Human IgG1 / kappa; also called humanized AC10 variant HBLA; hVH B + hVL A
In experiment [1], B6 displayed an EC50 of 3.31 nM. This EC50 and that of the molecule before are within 1.5-fold of each other.

B7: hAC10 HDLA (antibody, human IgG1, kappa, V domains shown)
VH: QVQLVQSGAEVKKPGASVKVSCKASGYTFTDYYITWVRQAPGQGLEWMGWIYPGSGNTKYNEKFKGRVTMTRDTSISTAYMELSRLRSDDTAVYYCANYGNYWFAYWGQGTLVTVSS
VL: DIVMTQSPDSLAVSLGERATINCKASQSVDFDGDSYMNWYQQKPGQPPKLLIYAASNLESGVPDRFSGSGSGTDFTLTISSLQAEDVAVYYCQQSNEDPWTFGQGTKVEIKR
notes: Human IgG1 / kappa; also called humanized AC10 variant HDLA; antibody HDLA
The molecule B7 gave an EC50 in experiment [1] of 3.1 nM.

B8: hAC10 HALC (antibody, human IgG1, kappa, V domains shown)
VH: QVQLVQSGAEVKKPGASVKVSCKASGYTFTDYYITWVRQAPGQGLEWMGWIYPGSGNTKYNEKFKGRVTMTVDTSISTAYMELSRLRSDDTAVYFCANYGNYWFAYWGQGTLVTVSS
VL: DIVMTQSPDSLAVSLGERATINCKASQSVDFDGDSYLNWYQQKPGQPPKLLIYAASNLESGVPDRFSGSGSGTDFTLTISSLQAEDVAVYYCQQSNEDPWTFGQGTKVEIKR
notes: Human IgG1 / kappa; also called humanized AC10 variant HALC; hVH A + hVL C
As for B8, in experiment [1], the EC50 amounted to 3.53 nM.

B9: cAC10 (CHO) (antibody, V domains shown)
VH: QVQLVQSGAEVVKPGASVKVSCKASGYTFTDYYITWVRQAPGQGLEWMGWIYPGSGNTKYNEKFKGKATLTVDTSSSTAFMQLSSLTSEDTAVYFCANYGNYWFAYWGQGTQVTVSA
VL: DIVLTQSPASLAVSLGQRATISCKASQSVDFDGDSYMNWYQQKPGQPPKVLIYAASNLESGIPARFSGSGSGTDFTLNIHPVEEEDAATYYCQQSNEDPWTFGGGTKLEIK
notes: Human-murine chimeric AC10 expressed in CHO cells; also called chimeric AC10; chimeric monoclonal antibody AC10
B9 returned an EC50 in experiment [2] of 2.9 nM.
